What all share (assay): cell-based or functional assay
In experiment [1] the target is HIV-1 92BR020 envelope glycoprotein (Env) (HIV-1).
The target of experiment [2] is HIV-1 92TH021 envelope glycoprotein (Env) (HIV-1).
Experiment [3] deals with HIV-1 92UG024 envelope glycoprotein (Env) (HIV-1).
In experiment [4] the target is HIV-1 JRFL envelope glycoprotein (Env) (HIV-1).
A further experiment deals with aMLV envelope protein.
In experiment [5] the target is HIV-1 93IN905 envelope glycoprotein (Env) on virus (HIV-1, clade C, isolate 93IN905).
For experiment [6], the target named is HIV-1 APV13 envelope glycoprotein (Env) on virus (HIV-1, clade B, isolate APV13).
Experiment [7] has as its target HIV-1 APV6 envelope glycoprotein (Env) on virus (HIV-1, clade B, isolate APV6).
Experiment [8] deals with HIV-1 JRFL envelope glycoprotein (Env) on virus (HIV-1, clade B, isolate JRFL).
In experiment [9] the target is HIV-1 MGRM-C-026 envelope glycoprotein (Env) on virus (HIV-1, clade C, isolate MGRM-C-026).
In experiment [10] the target is HIV-1 92BR020 envelope glycoprotein (Env), clade B pseudovirus (HIV-1).
The target of experiment [11] is HIV-1 93UG077 envelope glycoprotein (Env), clade A pseudovirus (HIV-1).
The target of experiment [12] is HIV-1 Env of isolate APV6 (clade B) (HIV-1).
For experiment [13], the target named is HIV-1 Env of isolate MGRM-A-010 (clade A) (HIV-1).
The target in experiment [14] is HIV-1 Env of isolate MGRM-C-027 (clade C) (HIV-1).
Experiment [15] concerns the target HIV-1 Env of pseudovirus DU422 (HIV-1).
In experiment [16] the target is HIV-1 Env of pseudovirus Du172 (HIV-1).
In experiment [17] the target is HIV-1 envelope glycoprotein (Env) of isolate 92BR020 (HIV-1).
Experiment [18] deals with HIV-1 envelope glycoprotein (Env) of isolate 92UG024 (HIV-1).
Experiment [19] addresses HIV-1 envelope glycoprotein (Env) of isolate MGRM-C-027 (HIV-1).
In experiment [20] the target is HIV-1 Env of isolate MGRM-Chronic-B-001 (subtype B), on pseudovirus (HIV-1).
Experiment [21] deals with HIV-1 Env of pseudovirus 98CN006 (HIV-1).
For experiment [22], the target named is HIV-1 envelope glycoprotein (Env) of isolate MG RM-A-001 (HIV-1).
Experiment [23] addresses HIV-1 92UG005 Env (pseudovirus) (HIV-1).
For experiment [24], the target named is HIV-1 APV17 Env (pseudovirus) (HIV-1).
The target of experiment [25] is HIV-1 APV6 Env (pseudovirus) (HIV-1).
Experiment [26] deals with HIV-1 JR-CSF Env S306A (HIV-1 (isolate JR-CSF, clade B)) (UniProt P20871).
Experiment [27] deals with HIV-1 92BR020 envelope glycoprotein (Env) on pseudovirus (HIV-1).
The target in experiment [28] is HIV-1 JRCSF Env (HIV-1 isolate JRCSF (clade B)) (UniProt P20871).
Experiment [29] has as its target HIV-1 JRFL Env (HIV-1 isolate JRFL (clade B)).

Consider ten substances from patent US20240132578A1.

Sequence of 5329_C19 (PGT-136) (antibody) (VH): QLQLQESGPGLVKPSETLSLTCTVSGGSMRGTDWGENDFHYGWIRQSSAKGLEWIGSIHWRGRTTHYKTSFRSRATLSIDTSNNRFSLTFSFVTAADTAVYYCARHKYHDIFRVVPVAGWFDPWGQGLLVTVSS
Sequence of 5329_C19 (PGT-136) (antibody) (VL): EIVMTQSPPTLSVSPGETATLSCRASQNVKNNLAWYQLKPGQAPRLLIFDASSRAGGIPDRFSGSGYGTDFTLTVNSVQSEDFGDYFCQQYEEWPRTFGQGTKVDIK
Sequence of 1443_C16 (PG16) (TCN-116) (antibody) (VH): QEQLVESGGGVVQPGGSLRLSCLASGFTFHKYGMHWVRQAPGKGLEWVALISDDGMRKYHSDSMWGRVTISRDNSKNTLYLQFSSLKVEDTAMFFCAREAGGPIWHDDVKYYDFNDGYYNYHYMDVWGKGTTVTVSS
Sequence of 1443_C16 (PG16) (TCN-116) (antibody) (VL): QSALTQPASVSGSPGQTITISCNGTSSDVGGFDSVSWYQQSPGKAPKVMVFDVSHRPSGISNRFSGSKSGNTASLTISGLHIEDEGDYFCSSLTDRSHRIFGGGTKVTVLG

5329_C19 (PGT-136) (antibody): the Neutralization IC80 in [1] is more than 10 µg/mL; in [2], more than 10 µg/mL; in experiment [3], 0.619 µg/mL; in [4], more than 10 µg/mL; with aMLV envelope protein, more than 10 µg/mL. Besides, the Neutralization IC90 in experiment [1] is more than 10 µg/mL; in [2] it was more than 10 µg/mL; in experiment [3], 1.96 µg/mL; in experiment [4] it was more than 10 µg/mL; with aMLV envelope protein, more than 10 µg/mL. Besides, the Neutralization IC95 in experiment [1] was more than 10 µg/mL; in experiment [2], more than 10 µg/mL; in experiment [3], 5.97 µg/mL; in [4], more than 10 µg/mL; with aMLV envelope protein, more than 10 µg/mL. In addition, the neutralization IC50 in experiment [1] was more than 10 µg/mL; in [2], more than 10 µg/mL; in [3], 0.0915 µg/mL; in experiment [4], more than 10 µg/mL; with aMLV envelope protein it was more than 10 µg/mL.

Consider 4877_D15 (PGT-122) (antibody), for which the Neutralization IC80 in experiment [5] worked out at 0.0505 µg/mL; in experiment [6] it was 4.14 µg/mL; in [7], 0.351 µg/mL; in experiment [8] it was 0.166 µg/mL; in experiment [9] it was 0.037 µg/mL. The Neutralization IC90 in experiment [5] worked out at 0.108 µg/mL; in experiment [6], 8.6 µg/mL; in experiment [7] it was 0.779 µg/mL; in [8], 0.342 µg/mL; in [9] it was 0.0849 µg/mL. For the same substance, the Neutralization IC95 was 0.217 µg/mL in experiment [5]; more than 10 µg/mL in experiment [6]; 1.55 µg/mL in experiment [7]; 0.659 µg/mL in experiment [8]; 0.181 µg/mL in experiment [9]. For the same substance, the neutralization IC50 in [5] turned out to be 0.0138 µg/mL; in experiment [6], 0.992 µg/mL; in [7] it was 0.0851 µg/mL; in experiment [8], 0.0471 µg/mL; in [9], 0.0089 µg/mL.

In [10], 4858_P08 (PGT-123) (antibody) yielded an IC50, pseudovirus neutralization of 0.013 µg/mL; an IC80 (pseudovirus neutralization) of 0.039 µg/mL; an IC90 (pseudovirus neutralization) of 0.0741 µg/mL; an IC95 (pseudovirus neutralization) of 0.134 µg/mL. In experiment [11], the IC50, pseudovirus neutralization was 0.0303 µg/mL; the IC80 (pseudovirus neutralization) is 0.143 µg/mL; the IC90 (pseudovirus neutralization) was 0.35 µg/mL; the IC95 (pseudovirus neutralization) stood at 0.78 µg/mL.

Take 1496_C09 (PG9) (TCN-109) (antibody): in [12], the Neutralization IC80 was 1.13 µg/mL, the Neutralization IC90 was determined as 3.21 µg/mL, the Neutralization IC95 was determined as 9.65 µg/mL and the neutralization IC50 was found to be 0.214 µg/mL. In [13], this substance displayed a Neutralization IC80 of 0.121 µg/mL, a Neutralization IC90 of 0.242 µg/mL, a Neutralization IC95 of 0.456 µg/mL and a neutralization IC50 of 0.0375 µg/mL. Further, the neutralization IC50 in [14] came to 2.45 µg/mL.

As for 1443_C16 (PG16) (TCN-116) (antibody), the results for the IC50, pseudovirus neutralization (TZM-bl assay) in experiment [15] and in [16] were 0.59 µg/mL and less than 0.01 µg/mL, respectively.

In experiment [17], 5141_B17 (PGT-126) (antibody) showed a Neutralization IC80 of 0.0457 µg/mL, a Neutralization IC90 of 0.0846 µg/mL, a Neutralization IC95 of 0.152 µg/mL and a neutralization IC50 of 0.0163 µg/mL. Further, in experiment [18], the Neutralization IC80 is more than 10 µg/mL, the Neutralization IC90 was more than 10 µg/mL, the Neutralization IC95 is more than 10 µg/mL and the neutralization IC50 is more than 10 µg/mL. In experiment [19], this substance showed a Neutralization IC80 of more than 10 µg/mL, a Neutralization IC90 of more than 10 µg/mL, a Neutralization IC95 of more than 10 µg/mL and a neutralization IC50 of 1.14 µg/mL.

The substance PGV04 (antibody) came in with an IC50, single-round pseudovirus neutralization in experiment [20] of 0.048 µg/mL. The IC50, pseudovirus neutralization in experiment [21] stood at 1.32 µg/mL. Further, the IC50 (in general, the concentration needed to halve the response being measured) in experiment [22] was found to be 6.78 µg/mL.

In [23], 5123_A06 (PGT-125) (antibody) returned a Neutralization by PGT-125, IC50 of more than 10 µg/mL; a Neutralization by PGT-125, IC80 of more than 10 µg/mL; a Neutralization by PGT-125, IC90 of more than 10 µg/mL; a Neutralization by PGT-125, IC95 of more than 10 µg/mL. Also, in [24], the Neutralization by PGT-125, IC50 is 7.31 µg/mL; the Neutralization by PGT-125, IC80 was more than 10 µg/mL; the Neutralization by PGT-125, IC90 is more than 10 µg/mL; the Neutralization by PGT-125, IC95 was more than 10 µg/mL. In experiment [25], the Neutralization by PGT-125, IC50 was 0.0359 µg/mL; the Neutralization by PGT-125, IC80 was 0.133 µg/mL; the Neutralization by PGT-125, IC90 worked out at 0.288 µg/mL; the Neutralization by PGT-125, IC95 turned out to be 0.597 µg/mL. Further, in experiment [26], the Fold IC50 increase relative to wild-type turned out to be 1.2 fold.

As for 5343_B08 (PGT-135) (antibody), in experiment [27], the Neutralization IC80 came out at 0.253 µg/mL, the Neutralization IC90 was 0.43 µg/mL, the Neutralization IC95 stood at 0.72 µg/mL and the neutralization IC50 was found to be 0.104 µg/mL.

In experiment [28], 4838_L06 (PGT-121) (antibody) registered a Neutralization IC90 of 0.223 µg/mL and a Neutralization IC95 of 0.417 µg/mL. For the same substance, in experiment [29], the Neutralization IC80 was 0.0806 µg/mL, the Neutralization IC90 was 0.151 µg/mL and the Neutralization IC95 amounted to 0.267 µg/mL.
